# From patent US7792645B2, “Three-dimensional structure of chalcone isomerase and methods of use thereof” (The Salk Institute for Biological Studies, priority 2000, dated 2010)
# Where a chain is given by its changes, count along the chain named. Names and notes keep the numbering of the source.
# T1: CHI active site (Medicago sativa, UniProt P28012)
# T1 construct: histidine tag (pHIS8 vector) (N, cleaved yes); made in house; host or cells: E. coli BL21(DE3)
# T1 sequence (P28012 1-222): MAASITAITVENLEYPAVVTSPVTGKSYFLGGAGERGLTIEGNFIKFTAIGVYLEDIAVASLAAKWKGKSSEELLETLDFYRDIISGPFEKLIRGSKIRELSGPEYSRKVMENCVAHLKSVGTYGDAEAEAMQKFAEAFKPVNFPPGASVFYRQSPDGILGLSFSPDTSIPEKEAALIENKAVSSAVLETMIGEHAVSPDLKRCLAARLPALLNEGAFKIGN
# T2: alfalfa chalcone synthase 2 (Medicago sativa, UniProt P30074)
# T2 sequence (P30074 1-389): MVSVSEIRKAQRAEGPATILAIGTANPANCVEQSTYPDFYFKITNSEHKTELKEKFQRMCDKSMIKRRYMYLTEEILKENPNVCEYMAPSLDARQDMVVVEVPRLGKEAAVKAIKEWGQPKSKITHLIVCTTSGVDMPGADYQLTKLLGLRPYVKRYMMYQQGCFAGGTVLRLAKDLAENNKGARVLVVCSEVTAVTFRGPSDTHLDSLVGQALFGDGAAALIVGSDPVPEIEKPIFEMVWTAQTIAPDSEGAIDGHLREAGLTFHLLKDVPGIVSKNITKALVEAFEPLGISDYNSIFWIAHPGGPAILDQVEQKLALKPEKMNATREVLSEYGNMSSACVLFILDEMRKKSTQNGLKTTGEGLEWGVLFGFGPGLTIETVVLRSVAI
# B1: CHI wild-type: chalcone isomerase from Medicago sativa (alfalfa), SEQ ID NO:1, expressed in E. coli (protein, listed as Medicago sativa)
# chain: T1 sequence (P28012 1-222) with R36X, L38X, T48X, Y106X, K109X, V110X, N113X, T190X, M191X
# modifications: MOD_RES (36) Arg, Met, Lys, Ala, His or Gln
# B2: CHI Y106F: alfalfa chalcone isomerase mutant, Tyr 106 substituted by phenylalanine (protein, UniProt P28012 1-222, looked up, variant Y106F)
# Chalcone--flavanone isomerase …: T1 sequence (P28012 1-222) with Y106F
# Assays:
# [1] = target: T1, CHI active site; experiment: Co-crystallization of CHI with (2S/2R)-naringenin, X-ray structure; assay type: binding, Medicago sativa (alfalfa); conditions: commercial mixture of (2S)- and (2R)-naringenin used for co-crystallization
# Protocol: Crystals of CHI (SEQ ID NO:1) were grown at 4° C. by vapor diffusion using the hanging drop method. A 2 μl drop containing a 1:1 mixture of 25 mg ml^−1 CHI and crystallization buffer (25% glycerol, 1.8-2.0 M ammonium sulfate and 0.05 M PIPES, pH 6.5) yielded diffraction quality crystals within a few days at 4° C. Crystals grew in space group P6522 with unit cell dimensions of a=90.37 Å; c=352.86 Å with two molecules per asymmetric unit and a solvent content of 72%. Native CHI diffraction data (105 K) were collected at beamline 7-1 of the Stanford Synchrotron Radiation Source (SSRL 7-1) on a 30 cm MAR imaging plate system. For generation of heavy atom derivatives, CHI crystals were soaked in mother liquor with either 1.2 mM K2OsCl6 or 1 mM HgCl2 for 12-16 hours. Heavy atom data (105 K) were collected at SSRL 9-1 on a 30 cm MAR imaging plate system. All images were indexed and integrated using DENZO and the reflections merged with SCALEPACK (Otwinowski, Z. & Minor, W., Methods Enzymol. 276:307-326, 1997). Data reduction was completed using programs from CCP4 (Collaborative Computational Project 4 (CCP4) Acta Crystallogr. D53:240-255, 1994) (See Table 3). […]
# [2] = tested on: chalcone isomerase (CHI); experiment: CHI enzyme assay, steady-state kinetics of 6′-deoxychalcone cyclization; assay type: biochemical, Medicago sativa (alfalfa); conditions: for kcat: cyclization of 6′-deoxychalcone, pH 7.5, substrate 2-50 μM; for kcat / Km: 25° C.; for Km: substrate 6′-deoxychalcone, pH 7.5
# Protocol: CHI assays were performed at 25° C. in a 0.5 ml reaction volume containing 0.05 M Hepes (pH 7.5), 50 μM 6′-deoxychalcone, and 3% ethanol as co-solvent. Time-dependent decreases in 6′-deoxychalcone absorbance (λmax=390 nm; ε=29,400 M^−1 cm^−1) were monitored with a Beckman DU-640 spectrophotometer. Determination of steady-state kinetic constants used the standard assay system with varied concentrations of substrate (2-50 μM) following fitting to the Michaelis-Menton equation using KALEIDAGRAPH (Abelbeck Software).
# [3] = target: T2, alfalfa chalcone synthase 2; experiment: Gel filtration and analytical ultracentrifugation for protein association in vitro; assay type: binding
# [4] = tested on: chalcone isomerase (CHI); conditions: cyclization of chalcone; cited from earlier work
Molecule,binding to CHI active site in co-crystal [1],kcat [2],kcat ([2]; listed as wild-type CHI),Km [2],association of alfalfa CHI and alfalfa chalcone synthase 2 [3],enzyme-catalyzed rate over spontaneous conversion rate [4],"reduction in reaction rate ([2]; Y106F mutant versus wild-type CHI, 6′-deoxychalcone)",kcat ([2]; listed as CHI Y106F mutant)
"O=C1C[C@@H](c2ccc(O)cc2)Oc2cc(O)cc(O)c21 [(2S)-naringenin, 5,7,4′-trihydroxyflavanone]",bound the CHI active site,,,,,,,
B1,,73.07 ± 8.62 s⁻¹,73.07 s⁻¹,25.7 µM,failed to detect association,10^7 fold,,
B2,,1.15 ± 0.085 s⁻¹,,29.1 µM,,,100 fold,1.15 s⁻¹
